T1: human BTN2A2 CFP(Nter)-fusion protein expressed on 293F BTN3/BTN2 KO cells (human, UniProt Q8WVV5 33-523)
T1 construct: also called pcDNA3-Zeo-BTN2A2-CFP; not shown: CFP fused at the N-terminus (CFP(Nter)-fusion)
T1 sequence: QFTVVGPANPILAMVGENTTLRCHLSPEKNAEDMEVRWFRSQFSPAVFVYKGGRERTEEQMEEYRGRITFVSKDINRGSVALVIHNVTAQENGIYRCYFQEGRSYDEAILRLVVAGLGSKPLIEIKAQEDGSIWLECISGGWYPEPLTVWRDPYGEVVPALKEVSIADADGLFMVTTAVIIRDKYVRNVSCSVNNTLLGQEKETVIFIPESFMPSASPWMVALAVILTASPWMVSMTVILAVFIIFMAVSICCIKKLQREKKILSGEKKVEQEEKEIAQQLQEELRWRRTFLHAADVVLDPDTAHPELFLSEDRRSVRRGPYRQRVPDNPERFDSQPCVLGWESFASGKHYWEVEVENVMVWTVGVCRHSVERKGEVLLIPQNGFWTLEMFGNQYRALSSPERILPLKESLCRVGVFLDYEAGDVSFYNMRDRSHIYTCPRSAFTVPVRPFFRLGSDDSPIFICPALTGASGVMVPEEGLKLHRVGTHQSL

T2: human BTN2A1 CFP(Nter)-fusion protein expressed on 293F BTN3/BTN2 KO cells (human, UniProt Q7KYR7 29-527)
T2 construct: also called pcDNA3-Zeo-BTN2A1-CFP; not shown: CFP fused at the N-terminus (CFP(Nter)-fusion)
T2 sequence: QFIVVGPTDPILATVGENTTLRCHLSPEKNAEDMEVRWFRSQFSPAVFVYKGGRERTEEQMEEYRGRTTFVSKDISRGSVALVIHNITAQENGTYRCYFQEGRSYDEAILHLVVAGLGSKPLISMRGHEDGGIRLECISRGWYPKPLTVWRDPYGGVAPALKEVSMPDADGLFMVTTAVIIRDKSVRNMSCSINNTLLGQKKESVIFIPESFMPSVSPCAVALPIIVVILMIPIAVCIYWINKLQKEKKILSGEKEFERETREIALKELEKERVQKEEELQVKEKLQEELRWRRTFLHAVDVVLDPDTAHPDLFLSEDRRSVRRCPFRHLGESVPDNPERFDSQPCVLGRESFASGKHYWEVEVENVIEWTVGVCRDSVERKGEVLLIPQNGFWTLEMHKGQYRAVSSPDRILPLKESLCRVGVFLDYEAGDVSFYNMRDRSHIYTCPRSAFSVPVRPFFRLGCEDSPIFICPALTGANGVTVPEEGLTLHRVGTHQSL

T3: human BTN2A2 expressed on HEK293F cells transfected with BTN2A2-Flag plasmid (human, UniProt Q8WVV5 33-523)
T3 construct: HEK293F cells here are not knocked out for endogenous BTN2/BTN3; also called HEK-BTN2 cells; not shown: Flag tag
T3 sequence: T1 sequence

B1: mAb4 (mouse anti-human BTN2 mAb 7.48) (antibody, V domains shown)
VH: EVQLVESGGDLVKPGGSLKLSCAASGFTFSDFYMYWVRRTPEKRLEWVATISDGGSHTYYPDSVKGRFTISRDNAKNNLYLQMRSLKSEDTAMYYCGRDTTIITPYWGQGTLVTVSA
VL: QSVVTQESALTTSPGETVTLTCRSSTGAVTTSNYANWVQEKPDHLFTGLIGGTNNRAPGVPARFSGSLIGDKAALTITGAQTEDEAIYFCGLWYSNHWVFGGGTKLTVL
notes: Mouse IgG1 purified from hybridoma supernatant; also called CNCM I-5234
B2: mAb1 (mouse anti-human BTN2 mAb 4.15) (antibody, V domains shown)
VH: QVQLQQSGAELVKPGASVKLSCKASGYIFTSYDINWVRQRPEQGLEWIGWIFPGDDSIIQNEKFKGKATLTTDKSSSTVYMQLSRLTSEDSAVYFCARLGPLRGFTYWGQGTLVTVSA
VL: DIVLTQSPASLAVSLGQRATISCRASESVDRYGSSFMHWYQQKPGQPPKLLIYRASNLESGIPARFSGSGSRTDFTLTINPVEADDVATYYCQQSNEDPWTFGGGTKLEIK
notes: Mouse IgG1 purified from hybridoma supernatant; also called CNCM I-5231
B3: mAb2 (mouse anti-human BTN2 mAb 5.28) (antibody, V domains shown)
VH: QIQLVQSGPELKKPGETVKISCKASGYTFTDYSMNWVKQAPGKGLKWVGRINTETGEPTYADDFKGRFAFSLETSASTAYLQIKNLKNEDTATYFCVRDYAKRWGQGTSVTVSS
VL: DIVMTQSHKFMSTSVGDRVSITCKASQDVITAVAWYQQKPGQSPKLLIYSTSYRYTGVPDRFTGSGSGTDFTFTISSVQAEDLAVYYCLQHYTTPWTFGGGTKLEIK
notes: Mouse IgG1 purified from hybridoma supernatant; also called CNCM I-5232
B4: mAb3 (mouse anti-human BTN2 mAb 7.28) (antibody, V domains shown)
VH: QVHLQQSGAELMKPGASVKISCKATGYTFSSYWIEWVKQRPGHGREWIGEILPGSGSTKYNEKFRGKATFAADTSSNTAYVQLSSLTSEDSAVYYCARLKGYYGGGAMDYWGQGTSVTVSS
VL: DVQITQSPSYLAASPGETITINCRASKSISKYLAWYQEKPGKTNELLIYSGSTLQSGIPSRFSGSGSGTDFTLTISSLEPEDFAMYYCQQHNEYPWTFGGGTKLEIK
notes: Mouse IgG1 purified from hybridoma supernatant; also called CNCM I-5233
B5: mAb5 (mouse anti-human BTN2 mAb 8.15) (antibody, V domains shown)
VH: EVKLLESGGGLVQPGGSLKLSCAASGFDFSGYWMTWVRQAPGKGLEWIGEINPDSSTINYTPSLRDKFIISRDNAKNTLYLQMSKVRSEDTALYFCARGSYYPSYWGQGTLVTVSA
VL: DIVLTQSPASLAVSLGQRATISCRASKSVSSSGYSYMNWYQQKPGQPPKLLIYLASNLESGVPARFSGSGSGTDFTLNIHPVEDEDAATYYCQHSRELPHTFGGGTKLEIK
notes: Mouse IgG1 purified from hybridoma supernatant; also called CNCM I-5235
B6: mAb6 (mouse anti-human BTN2 mAb 8.16) (antibody, V domains shown)
VH: B5 VH
VL: B5 VL
notes: Mouse IgG1 purified from hybridoma supernatant; also called CNCM I-5236
B7: mAb7 (mAb 8.33, comparative control antibody) (antibody, V domains shown)
VH: DVQLQESGPGLVKPSQSLSLTCSVTGYSITSGYYWNWIRQFPGNKLEWMGYISYDGNNNYNPSLKNRISITRDTSKNQFFLKLNSVTTEDTATYYCASPLYDGYYWYFDVWGAGTTVTVSS
VL: ETTVTQSPASLSLAIGEKVTIRCITSTDIDDDMNWYQQKPGEPPKLLISEANTLRPGVPSRFSSSGRGTDFVFTIENMLSEDVADYYCLQSDNLPYTFGGGTKLEIK
notes: Mouse IgG1 purified from hybridoma supernatant; also called CNCM I-5237

Each binder was assayed against T1, human BTN2A2 CFP(Nter)-fusion protein … (assay: flow cytometry on BTN2A2-transfected 293F BTN3/BTN2 KO cells (summary table, repeats the 7th table)).
Protocol: (§1) HEK-293F cells bearing CRISPR-Cas9-mediated deletions of all isoforms of BTN3 and BTN2 (293F BTN3/BTN2 KO) were generated (data not shown), cultured in DMEM (Life Technologies) 10% fetal bovine serum (FBS, Gibco) 1 mM sodium pyruvate (Thermofisher scientific), and transfected independently with pcDNA3-Zeo-BTN2A1-CFP or pcDNA3-Zeo-BTN2A2-CFP, which encode BTN2A1 and BTN2A2 CFP(Nter)-fusion proteins, using Lipofectamine 2000 reagent (Thermofisher scientific) according to manufacturer's instructions.
(§2) Twenty-four hours after transfection, cells (5×10⁴/sample) were collected and stained in duplicate with the indicated concentrations (2-fold dilutions starting from 20 μg/mL to 64 pg/mL) of all 7 purified anti-human BTN2 mAbs in 50 μL of staining buffer (DPBS1X (Thermofisher scientific) 1% FBS, 1 mM EDTA (Thermofisher scientific)) during 30 minutes at 4° C. Equal concentrations of mouse IgG1 antibody (Miltenyi) were used as isotype control for staining. Then, cells were washed twice with 200 μL of staining buffer, and incubated with a 1:200 dilution of goat anti-mouse Ig-PE conjugated (Jackson Immunoresearch) in staining buffer for 30 min at 4° C. in the dark. Finally, cells were washed twice in staining buffer prior to fixation using BD Cytofix reagent (BD Bioscience) according to manufacturer's instructions. Mean fluorescence intensity (MFI) on PE channel within the CFP-positive population was assessed for each sample in a Cytoflex LX (Beckman Coulter), and analyzed with a FlowJo V10.4.2 software (FlowJo, LLC 2006-2018).

Row | EC50 [µg/mL] | Binder
1 | 0.01 | B1
2 | 0.01 | B2
3 | 0.01 | B3
4 | 11.8 | B4
5 | 0.5 | B5
6 | 2.4 | B6

Each binder was assayed against T2, human BTN2A1 CFP(Nter)-fusion protein … (assay: flow cytometry on 293F BTN3/BTN2 KO cells transfected with BTN2A1-CFP).
Protocol: as §1
as §2, with “Finally, cells were washed twice in staining buffer prior to fixation using BD Cytofix reagent (BD Bioscience) according to manufacturer's instructions.” left out

Row | binding result | Binder
7 | no binding | B7

The binders below were run against T2, human BTN2A1 CFP(Nter)-fusion protein … (assay: flow cytometry (PE MFI in CFP-positive cells) on 293F BTN3/BTN2 KO cells transfected with BTN2A1-CFP).
Protocol: as §1, §2

Row | EC50 [µg/mL] | Binder
8 | 0.02 | B1
9 | 0.06 | B2
10 | 0.04 | B3
11 | 0.02 | B4
12 | 0.08 | B5
13 | 0.08 | B6

What follows are binders tested against T3, human BTN2A2 expressed on HEK293F cells … (assay: flow cytometry titration on HEK293F cells transfected with BTN2A2-Flag).

Row | EC50 [µg/mL] | Binder
14 | 0.08 | B1
15 | 0.07 | B2
16 | 0.07 | B3
17 | 31.3 | B4
18 | 0.1 | B5
19 | 0.11 | B6

The binders below were run against T1, human BTN2A2 CFP(Nter)-fusion protein … (assay: flow cytometry (PE MFI in CFP-positive cells) on 293F BTN3/BTN2 KO cells transfected with BTN2A2-CFP).
Protocol: as §1, §2

Row | EC50 [µg/mL] | Binder
20 | 0.01 | B1
21 | 0.01 | B2
22 | 0.01 | B3
23 | 11.8 | B4
24 | 0.5 | B5
25 | 2.4 | B6

The binders below were run against T3, human BTN2A2 expressed on HEK293F cells … (assay: flow cytometry on HEK-BTN2 cells (summary table, repeats the 5th table)).

Row | EC50 [µg/mL] | Binder
26 | 0.08 | B1
27 | 0.07 | B2
28 | 0.07 | B3
29 | 31.3 | B4
30 | 0.1 | B5
31 | 0.11 | B6

The binders below were run against T3, human BTN2A2 expressed on HEK293F cells … (assay: flow cytometry on HEK293F cells transfected with BTN2A2-Flag).
Protocol: FIG. 1: Binding of BTN2 mAbs on HEK293F cells. HEK293F cells were transfected with BTN2A2-Flag plasmid. At day 1 after transfection, BTN2A2 transfected HEK293F cells (A) and non-transfected HEK293F cells (B) were stained with purified mouse anti-human BTN2 mAbs for 20 min at 4° C. Monoclonal Anti-Flag antibody serves as positive control for transfection. After 2 washes, cells were incubated with a secondary goat anti-mouse IgG PE for 20 min at 4° C. and a marker for cell viability. Cells were acquired on a LSRFortessa (BD) and analyzed with FlowJo (TreeStar).

Row | binding result | Binder
32 | no binding | B7

The binders below were run against T2, human BTN2A1 CFP(Nter)-fusion protein … (assay: flow cytometry on BTN2A1-transfected 293F BTN3/BTN2 KO cells (summary table, repeats the 7th table)).
Protocol: as §1, §2

Row | EC50 [µg/mL] | Binder
33 | 0.02 | B1
34 | 0.06 | B2
35 | 0.04 | B3
36 | 0.02 | B4
37 | 0.08 | B5
38 | 0.08 | B6

What follows are binders tested against T1, human BTN2A2 CFP(Nter)-fusion protein … (assay: flow cytometry on 293F BTN3/BTN2 KO cells transfected with BTN2A2-CFP).
Protocol: as §1
as §2, with “Finally, cells were washed twice in staining buffer prior to fixation using BD Cytofix reagent (BD Bioscience) according to manufacturer's instructions.” left out

Row | binding result | Binder
39 | no binding | B7
